Usually Kd stands for the free concentration of one partner at which half of the binding sites on the other are occupied at equilibrium, for simple one-to-one binding.

For this assay, the target named is TcdB4.2 (full-length recombinant toxin B variant 4.2) (Clostridioides difficile). As to the kind of experiment: BLI; as a1, KD calculated with the BLItz system software from the indicated concentrations (Supplementary Fig. 7); KD called estimated. As to conditions: both partners purified.

B1: mTFPI-Fc (Fc-tagged mouse TFPI) (Fc fusion)
chain: LSEEADDTDSELGSMKPLHTFCAMKADDGPCKAMIRSYFFNMYTHQCEEFIYGGCEGNENRFDTLEECKKTCIPGYEKTAVKAASGAERPDFCFLEEDPGLCRGYMKRYLYNNQTKQCERFVYGGCLGNRNNFETLDECKKICENPVHSPSPVNEVQMSDYVTDGNTVTDRSTVNNIVVPQSPKVPRRR
notes: source: Expi293F, transfected, purified from culture medium as His-tagged protein
For the molecule B1, the Kd was around 63 nM.
